From patent publication US20140274782A1, “AFFINITY REAGENTS AND METHODS FOR DETECTION, PURIFICATION, AND PROTEOMIC ANALYSIS OF METHYLATED PROTEINS” (The Board of Trustees of the Leland Stanford Junior …, priority 2013, published 2014)

Tests used:
Experiment in all cases: ProtoArray, G9a array SNR minus GST array SNR
[1] = biological target: PPIL5, G9a-methylated (human) (UniProt Q96L50)
[2] = biological target: LPAL2, G9a-methylated (human) (UniProt Q16609)
[3] = biological target: C1QTNF6, G9a-methylated (human) (UniProt Q9BXI9)
Sequence of C1QTNF6, G9a-methylated (human) (Q9BXI9 47-278 limits assumed): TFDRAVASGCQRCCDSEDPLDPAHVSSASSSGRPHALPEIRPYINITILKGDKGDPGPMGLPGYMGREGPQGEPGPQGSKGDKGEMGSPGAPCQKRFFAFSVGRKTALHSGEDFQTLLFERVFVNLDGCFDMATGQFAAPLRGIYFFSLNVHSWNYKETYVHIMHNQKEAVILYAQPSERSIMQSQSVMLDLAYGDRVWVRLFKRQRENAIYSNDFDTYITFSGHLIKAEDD

[4] = biological target: UBE2D2, G9a-methylated (human) (UniProt P62837)
[5] = biological target: TEAD4, G9a-methylated (human) (UniProt Q15561)
[6] = biological target: ACSL4, G9a-methylated (human) (UniProt O60488)
[7] = biological target: STK17B, G9a-methylated (human) (UniProt O94768)
[8] = biological target: HS3ST1, G9a-methylated (human) (UniProt O14792)
Sequence of HS3ST1, G9a-methylated (human) (O14792 21-307 limits assumed): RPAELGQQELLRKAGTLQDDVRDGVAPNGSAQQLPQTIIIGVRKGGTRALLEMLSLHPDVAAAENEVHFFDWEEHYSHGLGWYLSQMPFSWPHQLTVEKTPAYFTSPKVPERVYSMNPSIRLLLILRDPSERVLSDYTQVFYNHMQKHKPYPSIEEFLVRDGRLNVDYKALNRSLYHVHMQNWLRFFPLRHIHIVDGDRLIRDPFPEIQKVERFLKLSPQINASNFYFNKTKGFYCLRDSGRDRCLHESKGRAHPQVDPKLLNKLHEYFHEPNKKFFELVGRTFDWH

[9] = biological target: MAGEH1, G9a-methylated (human) (UniProt Q9H213)
Sequence of MAGEH1, G9a-methylated (human) (Q9H213 whole entry): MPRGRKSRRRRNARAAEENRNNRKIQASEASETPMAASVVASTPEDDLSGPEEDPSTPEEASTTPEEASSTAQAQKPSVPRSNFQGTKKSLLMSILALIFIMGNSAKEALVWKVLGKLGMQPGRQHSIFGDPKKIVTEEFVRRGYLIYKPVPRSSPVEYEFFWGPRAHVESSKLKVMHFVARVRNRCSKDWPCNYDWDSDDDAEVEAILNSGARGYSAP

[10] = biological target: PPARG, G9a-methylated (human) (UniProt P37231)
Sequence of PPARG, G9a-methylated (human) (P37231 29-505 limits assumed): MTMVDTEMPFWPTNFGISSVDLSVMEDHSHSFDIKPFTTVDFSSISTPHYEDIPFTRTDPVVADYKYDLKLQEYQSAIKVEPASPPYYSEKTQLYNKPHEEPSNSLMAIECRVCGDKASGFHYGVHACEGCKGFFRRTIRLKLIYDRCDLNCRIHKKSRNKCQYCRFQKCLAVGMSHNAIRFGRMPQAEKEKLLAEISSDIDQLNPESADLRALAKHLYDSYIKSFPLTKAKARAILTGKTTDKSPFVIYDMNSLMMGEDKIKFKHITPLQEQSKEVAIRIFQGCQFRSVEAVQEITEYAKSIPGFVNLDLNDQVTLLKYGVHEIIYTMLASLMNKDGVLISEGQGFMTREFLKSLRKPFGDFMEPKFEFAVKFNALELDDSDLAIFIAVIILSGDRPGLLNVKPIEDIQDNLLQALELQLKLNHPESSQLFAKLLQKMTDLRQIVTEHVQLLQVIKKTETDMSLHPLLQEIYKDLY

[11] = biological target: TMED5, G9a-methylated (human) (UniProt Q9Y3A6)
[12] = biological target: NME1, G9a-methylated (human) (UniProt P15531)
Sequence of NME1, G9a-methylated (human) (P15531 whole entry): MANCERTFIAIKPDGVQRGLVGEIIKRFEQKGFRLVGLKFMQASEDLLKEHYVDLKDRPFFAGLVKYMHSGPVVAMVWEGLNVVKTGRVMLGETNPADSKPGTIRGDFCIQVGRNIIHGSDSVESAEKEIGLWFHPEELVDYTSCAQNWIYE

[13] = biological target: C2orf43, G9a-methylated (human) (UniProt Q9H6V9)
[14] = biological target: CCL24, G9a-methylated (human) (UniProt O00175)
Sequence of CCL24, G9a-methylated (human) (O00175 27-119 limits assumed): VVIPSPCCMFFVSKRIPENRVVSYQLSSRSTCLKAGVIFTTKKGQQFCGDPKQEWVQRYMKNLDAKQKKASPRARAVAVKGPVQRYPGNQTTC

[15] = biological target: LRRC20, G9a-methylated (human) (UniProt Q8TCA0)
[16] = biological target: C12orf23, G9a-methylated (human) (UniProt Q8WUH6)
[17] = biological target: FKBP14, G9a-methylated (human) (UniProt Q9NWM8)
[18] = biological target: CA13, G9a-methylated (human) (UniProt Q8N1Q1)
Sequence of CA13, G9a-methylated (human) (Q8N1Q1 whole entry): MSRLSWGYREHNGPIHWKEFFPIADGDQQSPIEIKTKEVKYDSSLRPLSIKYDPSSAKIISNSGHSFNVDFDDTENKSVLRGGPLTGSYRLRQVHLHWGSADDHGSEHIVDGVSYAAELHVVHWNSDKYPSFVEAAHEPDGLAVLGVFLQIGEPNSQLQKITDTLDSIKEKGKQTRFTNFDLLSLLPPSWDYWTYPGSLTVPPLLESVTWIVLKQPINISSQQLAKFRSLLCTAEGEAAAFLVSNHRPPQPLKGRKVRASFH

[19] = biological target: C10orf83, G9a-methylated (human) (UniProt Q8NDC4)
[20] = biological target: LYRM7, G9a-methylated (human) (UniProt Q5U5X0)
Sequence of LYRM7, G9a-methylated (human) (Q5U5X0 whole entry): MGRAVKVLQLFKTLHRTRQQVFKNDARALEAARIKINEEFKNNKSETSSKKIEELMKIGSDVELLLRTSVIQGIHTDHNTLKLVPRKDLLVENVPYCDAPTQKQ

[21] = biological target: NME7, G9a-methylated (human) (UniProt Q9Y5B8)
[22] = biological target: FTH1 (hit 109), G9a-methylated (human) (UniProt P02794)
Sequence of FTH1 (hit 109), G9a-methylated (human) (P02794 whole entry): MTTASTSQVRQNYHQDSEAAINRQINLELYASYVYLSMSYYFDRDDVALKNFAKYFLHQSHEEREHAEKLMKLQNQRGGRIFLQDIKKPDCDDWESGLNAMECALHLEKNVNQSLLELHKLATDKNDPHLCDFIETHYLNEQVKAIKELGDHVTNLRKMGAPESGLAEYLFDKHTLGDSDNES

[23] = biological target: CDK10, G9a-methylated (human) (UniProt Q15131)
[24] = biological target: RHBDD1, G9a-methylated (human) (UniProt Q8TEB9)
Sequence of RHBDD1, G9a-methylated (human) (Q8TEB9 whole entry): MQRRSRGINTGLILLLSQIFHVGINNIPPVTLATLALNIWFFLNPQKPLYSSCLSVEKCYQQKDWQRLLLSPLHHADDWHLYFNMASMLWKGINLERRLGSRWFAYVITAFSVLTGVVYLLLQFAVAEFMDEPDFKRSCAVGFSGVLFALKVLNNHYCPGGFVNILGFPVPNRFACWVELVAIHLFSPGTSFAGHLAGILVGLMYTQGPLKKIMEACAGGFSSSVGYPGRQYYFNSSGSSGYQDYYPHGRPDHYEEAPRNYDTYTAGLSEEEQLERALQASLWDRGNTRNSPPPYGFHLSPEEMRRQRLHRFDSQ

[25] = biological target: CDK5RAP3, G9a-methylated (human) (UniProt Q96JB5)
Sequence of CDK5RAP3, G9a-methylated (human) (Q96JB5 whole entry): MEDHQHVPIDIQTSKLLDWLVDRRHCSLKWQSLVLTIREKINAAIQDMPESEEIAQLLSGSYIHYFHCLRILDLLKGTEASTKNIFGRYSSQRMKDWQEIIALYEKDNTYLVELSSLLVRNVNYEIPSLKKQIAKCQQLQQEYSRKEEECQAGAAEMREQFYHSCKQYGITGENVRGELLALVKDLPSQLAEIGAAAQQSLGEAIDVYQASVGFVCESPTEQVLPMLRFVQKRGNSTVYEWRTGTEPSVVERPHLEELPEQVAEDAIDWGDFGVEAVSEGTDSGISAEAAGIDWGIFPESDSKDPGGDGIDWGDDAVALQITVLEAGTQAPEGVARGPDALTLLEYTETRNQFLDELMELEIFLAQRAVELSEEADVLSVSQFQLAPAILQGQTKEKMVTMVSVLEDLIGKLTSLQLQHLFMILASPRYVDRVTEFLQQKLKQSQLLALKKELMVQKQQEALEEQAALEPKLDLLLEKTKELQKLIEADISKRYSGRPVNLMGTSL

[26] = biological target: CAB39L, G9a-methylated (human) (UniProt Q9H9S4)
Sequence of CAB39L, G9a-methylated (human) (Q9H9S4 whole entry): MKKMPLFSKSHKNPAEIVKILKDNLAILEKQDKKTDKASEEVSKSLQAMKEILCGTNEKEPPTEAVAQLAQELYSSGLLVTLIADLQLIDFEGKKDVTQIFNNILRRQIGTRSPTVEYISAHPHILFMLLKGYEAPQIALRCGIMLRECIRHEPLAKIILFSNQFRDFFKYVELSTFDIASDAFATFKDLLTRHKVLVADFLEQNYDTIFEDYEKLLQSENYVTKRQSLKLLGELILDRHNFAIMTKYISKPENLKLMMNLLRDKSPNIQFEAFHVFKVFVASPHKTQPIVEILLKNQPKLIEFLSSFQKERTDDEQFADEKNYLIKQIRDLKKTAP

[27] = biological target: TMEM97, G9a-methylated (human) (UniProt Q5BJF2)
[28] = biological target: AP1S1, G9a-methylated (human) (UniProt P61966)
[29] = biological target: GPR108, G9a-methylated (human) (UniProt Q9NPR9)
Sequence of GPR108, G9a-methylated (human) (Q9NPR9 33-543 limits assumed): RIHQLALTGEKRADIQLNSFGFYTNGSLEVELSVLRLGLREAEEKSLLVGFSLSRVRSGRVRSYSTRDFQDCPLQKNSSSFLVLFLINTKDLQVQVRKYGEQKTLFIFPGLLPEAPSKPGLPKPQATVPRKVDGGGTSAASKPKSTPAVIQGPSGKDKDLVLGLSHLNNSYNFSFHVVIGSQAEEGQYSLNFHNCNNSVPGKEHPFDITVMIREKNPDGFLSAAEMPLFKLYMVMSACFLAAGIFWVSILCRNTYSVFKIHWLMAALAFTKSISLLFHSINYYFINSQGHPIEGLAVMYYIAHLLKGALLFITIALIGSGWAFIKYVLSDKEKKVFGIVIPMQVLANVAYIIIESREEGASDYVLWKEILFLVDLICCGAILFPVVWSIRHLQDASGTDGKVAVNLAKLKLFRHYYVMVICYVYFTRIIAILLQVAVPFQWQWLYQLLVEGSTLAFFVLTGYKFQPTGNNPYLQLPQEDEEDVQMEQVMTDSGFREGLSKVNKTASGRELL

[30] = biological target: TMEM32, G9a-methylated (human) (UniProt Q8N4V1)
Sequence of TMEM32, G9a-methylated (human) (Q8N4V1 whole entry): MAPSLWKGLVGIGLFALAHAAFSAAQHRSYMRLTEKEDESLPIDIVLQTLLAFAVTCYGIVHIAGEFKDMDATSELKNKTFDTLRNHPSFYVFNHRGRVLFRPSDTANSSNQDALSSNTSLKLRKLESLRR

[31] = biological target: PSMA8, G9a-methylated (human) (UniProt Q8TAA3)
Sequence of PSMA8, G9a-methylated (human) (Q8TAA3 whole entry): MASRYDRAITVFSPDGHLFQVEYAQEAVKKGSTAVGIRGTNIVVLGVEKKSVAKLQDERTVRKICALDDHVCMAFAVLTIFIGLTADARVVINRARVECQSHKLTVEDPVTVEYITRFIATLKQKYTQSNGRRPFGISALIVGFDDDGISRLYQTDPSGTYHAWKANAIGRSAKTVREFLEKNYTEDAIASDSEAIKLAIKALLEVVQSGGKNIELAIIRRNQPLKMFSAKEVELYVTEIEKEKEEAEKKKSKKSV

[32] = biological target: DYNC2LI1, G9a-methylated (human) (UniProt Q8TCX1)
[33] = biological target: HPCAL4, G9a-methylated (human) (UniProt Q9UM19)
[34] = biological target: PTCD2, G9a-methylated (human) (UniProt Q8WV60)
[35] = biological target: CDKL5, G9a-methylated (human) (UniProt O76039)
[36] = biological target: RDH11, G9a-methylated (human) (UniProt Q8TC12)
[37] = biological target: FTH1 (hit 104), G9a-methylated (human) (UniProt P02794)
Sequence of FTH1 (hit 104), G9a-methylated (human) (P02794 whole entry): as the sequence (P02794 whole entry) above

[38] = biological target: BHMT, G9a-methylated (human) (UniProt Q93088)
[39] = biological target: CTSZ, G9a-methylated (human) (UniProt Q9UBR2)
Sequence of CTSZ, G9a-methylated (human) (Q9UBR2 24-303 limits assumed): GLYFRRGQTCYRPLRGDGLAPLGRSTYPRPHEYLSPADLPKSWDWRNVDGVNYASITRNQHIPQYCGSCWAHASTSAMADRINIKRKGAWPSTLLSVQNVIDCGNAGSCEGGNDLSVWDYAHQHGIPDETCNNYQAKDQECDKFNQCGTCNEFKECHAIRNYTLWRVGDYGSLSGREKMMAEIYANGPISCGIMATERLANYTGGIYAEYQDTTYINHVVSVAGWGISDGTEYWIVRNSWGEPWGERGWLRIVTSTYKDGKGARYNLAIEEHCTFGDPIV

[40] = biological target: C11orf73, G9a-methylated (human) (UniProt Q53FT3)

Sequence of LPAL2, G9a-methylated (human) (Q16609 22-132 limits assumed): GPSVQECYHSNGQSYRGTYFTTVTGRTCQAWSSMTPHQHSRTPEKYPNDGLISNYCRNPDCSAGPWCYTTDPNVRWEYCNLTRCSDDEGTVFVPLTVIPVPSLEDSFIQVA

G9a-GST [1]: 12.4
G9a-GST [2]: 33
G9a-GST [3]: 16.8
G9a-GST [4]: 37.6
G9a-GST [5]: 16.1
G9a-GST [6]: 12.1
G9a-GST [7]: 13.8
G9a-GST [8]: 13.2
G9a-GST [9]: 42.9
G9a-GST [10]: 13.3
G9a-GST [11]: 15.5
G9a-GST [12]: 14.1
G9a-GST [13]: 12.1
G9a-GST [14]: 34.4
G9a-GST [15]: 30.9
G9a-GST [16]: 12.2
G9a-GST [17]: 13.7
G9a-GST [18]: 12.2
G9a-GST [19]: 14.6
G9a-GST [20]: 16.9
G9a-GST [21]: 13.6
G9a-GST [22]: 37.9
G9a-GST [23]: 13.2
G9a-GST [24]: 12.4
G9a-GST [25]: 14.1
G9a-GST [26]: 14.5
G9a-GST [27]: 22.8
G9a-GST [28]: 15.4
G9a-GST [29]: 20
G9a-GST [30]: 12.1
G9a-GST [31]: 13.9
G9a-GST [32]: 12.4
G9a-GST [33]: 12.3
G9a-GST [34]: 18.7
G9a-GST [35]: 18.3
G9a-GST [36]: 26.5
G9a-GST [37]: 31.2
G9a-GST [38]: 15.2
G9a-GST [39]: 12.3
G9a-GST [40]: 14.9
Substance: 3× Flag-3×MBT (designed binder)
